Laboratory results: PMC3464217
pKd: −log10 of the molar value.

Target: recombinant gp160 (HIV (IIIB or MN/LAI))
Experiment: SPR
Conditions: bispecific antibody

Substance | Ka [M⁻¹] | pKd
HY-[Hx4]-7B2 (from UniProt P01857) | 1.7e+10 | –
HY-[Fx2-Hx4-Fx2]-7B2 (from UniProt P01857) | 4.6e+10 | 10.68
